The text below walks through data of patent publication US20240360214A1 (Pfizer, published 2024).

Assay [1] concerns the target T1, LILRB2 expressed on THP1 cells (human, UniProt Q8N423 22-597).
T1 construct: whole, on cells; also called THP1 LILRB2 expressing cells; THP1-LILRB2 cells
As to the kind of experiment: flow cytometry competition with PE HLA-G tetramer on THP1-LILRB2 cells; lower end of the printed range 1.7-6 nM. The procedure:
(§1) LILRB1 or LILRB2 overexpressing THP1 cells were prepared in FACS buffer (0.5% BSA in PBS) and seeded in 100 μl/well (96 well plate) at 1λ10⁶ cells/ml concentration. The tested antibodies were serially diluted 3-fold into assay buffer starting from 200 nM. 40 μl of serial diluted antibody together with 40 μl of PE labelled HLA-G tetramer (FRED HUTCH IMT40509) at 2 ug/ml were added to each well and incubated on ice for 1 hour. The cells were washed 2 times with FACS buffer and resuspended in 50 μl/well FACS buffer containing 1:1000 dilution of LIVE/Dead fixable violet dead cell stain (Invitrogen #L34964), incubated on ice for 15 minutes. The cells were then washed with FACS buffer for 2 times and resuspended in 80 μl of Cytofix buffer (BD Cat #554655).

The target of assay [2] is T1, LILRB2 expressed on THP1 cells. As to the kind of experiment: flow cytometry competition with PE HLA-G tetramer on THP1-LILRB2 cells; upper end of the printed range 1.7-6 nM. On the procedure:
as §1
On the technique in general: A flow cytometer gives signals particle by particle.

For assay [3], the target named is T2, human LILRB2 (huLILRB2), purified recombinant protein (human, UniProt Q8N423 22-458, limits assumed).
T2 construct: Bought protein, used as the SPR analyte and as the ELISA coat; also called huLILIB2
T2 sequence (Q8N423 22-458 limits assumed): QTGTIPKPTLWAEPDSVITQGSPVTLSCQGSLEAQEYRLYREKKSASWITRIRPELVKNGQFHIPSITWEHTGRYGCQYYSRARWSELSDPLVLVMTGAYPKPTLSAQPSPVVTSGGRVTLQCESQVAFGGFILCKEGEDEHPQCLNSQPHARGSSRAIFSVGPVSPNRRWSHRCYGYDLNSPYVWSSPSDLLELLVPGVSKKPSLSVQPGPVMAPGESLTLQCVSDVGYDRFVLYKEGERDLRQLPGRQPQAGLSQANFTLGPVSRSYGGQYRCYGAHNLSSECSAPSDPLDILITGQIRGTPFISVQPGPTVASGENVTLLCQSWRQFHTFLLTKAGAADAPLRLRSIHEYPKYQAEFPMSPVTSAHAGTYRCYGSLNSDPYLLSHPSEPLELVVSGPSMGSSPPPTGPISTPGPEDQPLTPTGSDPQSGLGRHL
As to the kind of experiment: SPR (Biacore 8K, 37 C), antibody captured by anti-human Fc, huLILRB2 as analyte, 1:1 fit. The procedure:
Biacore kinetic assays were conducted at 37° C. with a collection rate of 10 Hz using the Biacore 8K and 8K+ instruments (Cytiva). […] The final capture levels of the antibodies ranged from 20 resonance units (RU) to 60 RU. HBS-EP+pH 7.4 (10 mM HEPES pH 7.4, 150 mM NaCl, 3 mM EDTA, 0.05% Tween 20) was used as sample and running buffer. Flow cell 1 was used as a reference flow cell. Two-fold serial dilutions of human LILRB2 or LILRB1 (R&D Systems, Catalog number: 8429-T4) were prepared with concentrations from 45 nM to 1.667 nM for LILRB2; 405 nM to […] for LILRB1. Dilutions were prepared in duplicate and injected over all flow cells for 60 s at flow rate of 50 μl per minute. Dissociation was monitored for 600 s and the surface was regenerated with two 30 s injections of 3M MgCl₂ at flow rate of 50 μl per minute. The resulting data was double referenced (Myszka, D. G. Improving biosensor analysis. J. Mol. Recognit. 12:279-284; (1999). Rate constants and affinities were determined by fitting the sensorgram data to a Langmuir 1:1 model using Biacore Insight Evaluation software version 3.0.12 (Cytiva).
In general terms: In SPR one partner is held on a chip, and binding of the other changes the refractive index at the surface.

The next assay concerns the target huLILRA5 (human, UniProt A6NI73 42-268, limits assumed). As to the kind of experiment: SPR (Biacore), antibody captured.
A further assay concerns the target huLILRA2 (human, UniProt Q8N149 24-449, limits assumed). Kind of assay: SPR (Biacore), antibody captured.
For another assay, the target named is huLILRA1 (human, UniProt O75019 17-461, limits assumed). As to the kind of experiment: SPR (Biacore), antibody captured.
Sequence of huLILRA1 (O75019 17-461 limits assumed): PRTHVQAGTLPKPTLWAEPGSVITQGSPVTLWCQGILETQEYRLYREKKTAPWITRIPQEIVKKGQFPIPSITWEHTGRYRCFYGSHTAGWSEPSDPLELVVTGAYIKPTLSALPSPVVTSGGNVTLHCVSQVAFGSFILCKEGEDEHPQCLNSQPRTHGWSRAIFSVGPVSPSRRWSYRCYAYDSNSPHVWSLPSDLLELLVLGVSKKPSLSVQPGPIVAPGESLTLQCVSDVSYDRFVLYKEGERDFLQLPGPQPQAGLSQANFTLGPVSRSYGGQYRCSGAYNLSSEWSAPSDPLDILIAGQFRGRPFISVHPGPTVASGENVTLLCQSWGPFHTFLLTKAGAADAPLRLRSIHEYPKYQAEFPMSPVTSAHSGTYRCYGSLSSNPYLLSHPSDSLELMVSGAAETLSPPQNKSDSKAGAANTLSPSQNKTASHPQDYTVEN
For assay [4], the target named is T1, LILRB2 expressed on THP1 cells. As to the kind of experiment: flow cytometry competition with PE HLA-G tetramer on THP1-LILRB2 cells (THPB2). The procedure:
as §1

T1 sequence (Q8N423 22-597): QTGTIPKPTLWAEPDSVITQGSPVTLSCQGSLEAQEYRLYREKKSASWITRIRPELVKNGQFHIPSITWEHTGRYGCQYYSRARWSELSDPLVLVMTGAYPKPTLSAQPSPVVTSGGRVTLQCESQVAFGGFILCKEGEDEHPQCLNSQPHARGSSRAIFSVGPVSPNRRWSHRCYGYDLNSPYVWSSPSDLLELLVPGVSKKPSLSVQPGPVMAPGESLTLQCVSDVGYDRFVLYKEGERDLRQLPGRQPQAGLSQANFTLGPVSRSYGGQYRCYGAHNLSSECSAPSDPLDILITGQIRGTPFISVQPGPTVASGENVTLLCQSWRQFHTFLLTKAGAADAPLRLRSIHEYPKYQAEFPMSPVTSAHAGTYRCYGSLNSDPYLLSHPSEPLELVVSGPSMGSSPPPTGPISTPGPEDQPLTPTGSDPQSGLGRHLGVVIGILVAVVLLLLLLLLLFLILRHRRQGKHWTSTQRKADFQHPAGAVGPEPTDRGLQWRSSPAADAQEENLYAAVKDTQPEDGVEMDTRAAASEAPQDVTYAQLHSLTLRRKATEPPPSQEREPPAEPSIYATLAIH
Sequence of huLILRA5 (A6NI73 42-268 limits assumed): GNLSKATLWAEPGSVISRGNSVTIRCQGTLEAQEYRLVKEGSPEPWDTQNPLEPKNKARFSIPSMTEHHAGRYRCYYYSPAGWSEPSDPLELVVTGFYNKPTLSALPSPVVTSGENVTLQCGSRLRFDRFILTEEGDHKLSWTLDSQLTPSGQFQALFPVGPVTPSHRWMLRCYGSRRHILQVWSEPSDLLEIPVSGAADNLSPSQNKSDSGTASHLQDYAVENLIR
Sequence of huLILRA2 (Q8N149 24-449 limits assumed): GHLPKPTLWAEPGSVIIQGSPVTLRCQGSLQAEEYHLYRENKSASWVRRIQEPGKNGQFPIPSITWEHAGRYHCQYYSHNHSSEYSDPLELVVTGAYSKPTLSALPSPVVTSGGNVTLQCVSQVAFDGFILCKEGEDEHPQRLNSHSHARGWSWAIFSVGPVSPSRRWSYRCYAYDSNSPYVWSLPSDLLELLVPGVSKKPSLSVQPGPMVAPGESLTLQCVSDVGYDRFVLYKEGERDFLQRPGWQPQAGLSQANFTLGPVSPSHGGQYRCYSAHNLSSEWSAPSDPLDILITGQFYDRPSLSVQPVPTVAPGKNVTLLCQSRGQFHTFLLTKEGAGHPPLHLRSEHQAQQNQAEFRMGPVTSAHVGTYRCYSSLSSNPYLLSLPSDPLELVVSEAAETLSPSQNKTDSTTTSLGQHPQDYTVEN

B1: anti-LILRB2 antibody Ab-B2-1825 (antibody, human IgG1, lambda, V domains shown)
VH: EVQLLESGGGLVQPGGSLRLSCAASGFTFSSYAMSWVRQAPGKGLEWVSAISGSGGSTYYADSVKGRFTISRDNSKNTLYLQMNSLRAEDTAVYYCWRWLNLGDAFDIWGQGTMVTVSS
VL: QSVLTQPPSASGTPGQRVTISCTGSSSNIGSNTVNWYQQLPGTAPKLLIYSDNQRPSGVPDRFSGSTSGTSASLAISGLRSEDEADYFCATWEDVLAGYVVFGGGTKLTVLG
As usually defined, the IC50 is the midpoint of a concentration-inhibition curve. A high value points to lower potency. The Kd is the free concentration of one partner at which half of the binding sites on the other are occupied at equilibrium, for simple one-to-one binding. The koff is a measure of how fast the partners let go of each other. For orientation: kon means the rate constant with which the complex forms. The t½ is the time needed for the level to fall by half in the phase considered. What is called EC50 is the concentration giving half of the maximal effect. As for B1, the IC50 in assay [1] is no less than 1.7 nM. In addition, the IC50 in assay [2] is no more than 6 nM. For the same molecule, in assay [3], the Kd came to 0.59 nM, the koff was 0.000276 s⁻¹, the kon stood at 810000 M⁻¹ s⁻¹ and the “t½” value was 54.2 min. The binding result with huLILRA5 is “no binding”. In addition, the binding result in the assay with huLILRA2 is reported as “no binding”. The binding result with huLILRA1 is listed as “no binding”. For the same molecule, the EC50 in assay [4] came to 3.43 nM.
